Laboratory results published in patent US9090686B2, “Antibodies for the treatment of HIV” (Pierre Fabre Medicament, priority 2009, dated 2015).
Residue numbers refer to the chain shown, from its start.

B1: 515H7: murine anti-CXCR4 monoclonal antibody; light chain variable domain SEQ ID No. 7, heavy chain variable domain SEQ ID No. 8 (antibody, listed as Mus musculus, V domains shown)
VH: EVNLVESGGGLVQPGGSLRLSCATSGFTFTDNYMSWVRQPPGKALEWLGFIRNKANGYTTDYSASVRGRFTISRDNSQSILYLQMNALRAEDSATYYCARDVGSNYFDYWGQGTTLTVSS
VL: DIVMSQSPSSLAVSAGEKVTMSCKSSQSLFNSRTRKNYLAWYQQKPGQSPKLLIYWASARDSGVPARFTGSGSETYFTLTISRVQAEDLAVYYCMQSFNLRTFGGGTKLEIK
B2: c515H7: chimeric antibody 515H7: murine variable domains fused to human Ckappa and IgG1/IgG2/IgG4 constant domains; isotype tested not stated (antibody, V domains shown)
VH: B1 VH
VL: B1 VL
B3: 301aE5: murine anti-CXCR4 monoclonal antibody; light chain variable domain SEQ ID No. 34, heavy chain variable domain SEQ ID No. 35 (antibody, listed as Mus musculus, V domains shown)
VH: QVQLKESGPGLVAPSQSLSITCTVSGFSLTDYGVYWVRQPPGKGLEWLGMIWGDGTTDYNSALKSRLSISKDNSKSQVFLKMNTLQTDDTARYYCARGRQFGFDYWGQGTTLTVSS
VL: B1 VL with S22R, Y55F, A59I, D61E, A66D, E74G, Y76D, R83S, M95K, F98Y

Experiments:
Format in all cases: cell-based
[1] = test system: HIV-1 X4 primary isolate KON; assay: Single cycle neutralization assay in human PBMC, isolate KON; settings: IC for 80% inhibition
[2] = test system: HIV-1 X4 primary isolate MN; assay: Single cycle neutralization assay in human PBMC, isolate MN; design: MN % inhibition of infected cells 90 / MN % inhibition of infected cells 80: unit not given here; settings: for MN % inhibition of infected cells 80: IC for 80% inhibition; for MN % inhibition of infected cells 80 / MN % inhibition of infected cells 90: human PBMC; for MN % inhibition of infected cells 90: IC for 90% inhibition
Protocol: (§1) This assay is performed in 36 h using primary isolates KON, MN and 92UG024 concentrated and diluted accordingly to allow the detection 2% infected CD4 T lymphocytes after 2 days of infection.
(§2) Twenty-five microliters of various dilutions of Mabs 515H7, c515H7 and 301aE5 were incubated for 1 h at 37° C. with 25 μl of virus. Human PBMC (25 μl) at 20×10^6 cells/ml were added to the Mab/virus mixture in a 96-well plate (U-bottom, Costar 3599) and cultured for 36 h in RPMI 1640 10% FCS and 20 U/ml IL-2 (R&D Systems, Minneapolis, Minn.).
(§3) After 2 days of culture, HIV-infected lymphocytes were detected by intracellular staining of viral p24 Ag. Cells were fixed and permeabilized using both Cytofix/Cytoperm and Perm/Wash kits (BD Biosciences) according to the manufacturer and stained with a fluorescent anti-p24 Mab (FITC- or PE-anti-p24, clone KC57; Beckman Coulter/Immunotech, Hialeah, Fla.) used at a 1/160 dilution in Perm/Wash solution added for 15 min at 4° C. After washing in PBS with 3% FBS, PBMC were diluted in 300 μl of PBS before flow cytometry analysis (LSRII; BD Biosciences) with DIVA software (BD Biosciences). The percentage of p24-positive cells in the different samples was determined by gating 20,000 events on a living cell population identified by forward- and side-scatter parameters. The living cell subsets were analyzed with the live/dead solution kit (Invitrogen). The p24 Ag-positive value was obtained after subtraction of background events in mock-infected cells.
(§4) The percent of neutralization was defined as the reduction of p24-positive cells compared with control infected wells with no Mab. The neutralizing titer was defined as the concentration of antibody (interpolated between successive dilutions performed in triplicate) that allows a 90% decrease in the percentage of infected cells.

[3] = test system: HIV-1 X4 primary isolate KON; assay: Single cycle neutralization assay in human PBMC, isolate KON; settings: for KON % inhibition of infected cells 90: IC for 90% inhibition, human PBMC
Protocol: as §1, §2, §3, §4
This assay was performed in 36 h using primary isolate KON concentrated and diluted accordingly to allow the detection 2% infected CD4 T lymphocytes after 2 days of infection.
[…] Human PBMC (25 p.1) at 20×10^6 cells/ml were added to the Mab/virus mixture in a 96-well plate (U-bottom, Costar 3599) and cultured for 36 h in RPMI 1640 10% FCS and 20 U/ml IL-2 (R&D Systems, Minneapolis, Minn.).
as §4, with “[…]” for “a 90%”

[4] = test system: HIV-1 X4 primary isolate 92UG024; assay: Single cycle neutralization assay in human PBMC, isolate 92UG024; design: 92UG024 % inhibition of infected cells 90 / 92UG024 % inhibition of infected cells 80: unit not given here; settings: for 92UG024 % inhibition of infected cells 90: IC for 90% inhibition
Protocol: as §1, §2, §3
The percent of neutralization was defined as the reduction of p24-positive cells compared with control infected wells with no Mab. […]

human CXCR4 = human CXCR4 (Homo sapiens, UniProt P61073); assay: SDF-1-induced calcium release in CHO-CXCR4 cells; design: expressed in transfected cells; settings: Mab 133 nM, SDF-1 100 nM
Chain of human CXCR4 (P61073 whole entry): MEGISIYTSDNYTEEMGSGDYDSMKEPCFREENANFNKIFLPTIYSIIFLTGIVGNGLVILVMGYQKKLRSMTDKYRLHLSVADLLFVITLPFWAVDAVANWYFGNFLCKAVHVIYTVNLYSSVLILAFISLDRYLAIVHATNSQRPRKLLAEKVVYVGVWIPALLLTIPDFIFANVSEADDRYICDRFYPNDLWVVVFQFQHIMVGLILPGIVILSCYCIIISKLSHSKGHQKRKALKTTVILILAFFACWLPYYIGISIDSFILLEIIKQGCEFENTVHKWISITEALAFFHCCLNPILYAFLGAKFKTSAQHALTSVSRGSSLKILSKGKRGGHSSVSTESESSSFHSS
Text: This functional assay was designed to monitor CXCR4 receptor signaling via stimulation of the phospholipase C pathway, inducing calcium liberation from intracellular stores from the endoplasmic reticulum.
CHO-K1 cells, stably and constitutively expressing human CXCR4 receptor were obtained upon transfection of naïve CHO-K1 cells (ATCC CCL-61) with a mammalian expression vector carrying the whole coding sequence of human CXCR4 receptor (RefSeq NM_003467). Cells were propagated in complete culture medium [DMEM-Ham's F12 supplemented with 5% fetal calf serum (FCS) and 500 μg/ml of geneticin]. Cells were plated in black 96MW plates at a density of 100,000 cells/well in appropriate culture medium. Cells were starved overnight before conducting the experiments. Cells are loaded with the fluorescent calcium dye (Fluo-4 No Wash, Invitrogen US) in loading buffer [HBSS 1×, HEPES 20 mM, Probenicid acid 25 mM] for 30 min. at 37° C. followed by 30 min. at 25° C. Stimulation by SDF-1 was performed by direct injection into each well. For antagonism experiments, 10 μl of Mab solution are added directly into the loading buffer at least 10 min. before SDF-1. Kinetic fluorescence measurements are performed on a multi-mode fluorescence microplate reader Mithras LB940 (Berthold) using the following settings: excitation at 485 nm, emission at 535 nm, excitation energy at 10000 arbitrary units. Fluorescence in each well is recorded during 0.1 second every second and for a time period of 20 sec. prior SDF-1 injection (basal signal). Then 20 μl of SDF-1 are injected and data recording follows for a time period of 2 min. Each experimental condition is performed in duplicate. Values for each well are first corrected by subtracting the basal fluorescence and the fluorescence emitted by a control well without cells. Relative data are expressed as a percentage of the maximal stimulation obtained by SDF-1 (100 nM).

Molecule | KON % inhibition of infected cells 80 [1] | inhibition of HIV-1 X4 MN primary isolate replication in PBMC (in words) [2] | MN % inhibition of infected cells 80 [2] | MN % inhibition of infected cells 90 [2] | inhibition of HIV-1 X4 KON primary isolate replication in PBMC (in words) [3] | KON % inhibition of infected cells 90 [3] | inhibition of HIV-1 X4 92UG024 primary isolate replication in PBMC (in words) [4] | 92UG024 % inhibition of infected cells 90 ([4]; human PBMC) | inhibition of the SDF-1-induced calcium signal (in words) (human CXCR4) | 92UG024 % inhibition of infected cells 80 ([4]; IC for 80% inhibition, human PBMC)
B1 | 8 µg/mL | able to inhibit | 1.5 | 10 | able to inhibit | 15 µg/mL | able to inhibit | 10 | strong inhibition | 
B2 | 10 µg/mL | able to inhibit | 1 | 15 | able to inhibit | 20 µg/mL | able to inhibit | 15 | strong inhibition | 
B3 | >150 µg/mL | able to inhibit | 150 | >150 | able to inhibit | >150 µg/mL | able to inhibit | >150 | partial inhibition | 150
